Laboratory results taken from patent US20020160955A1 (published 2002).

What was measured:
Assay in all cases: competitive phage ELISA
[1] = molecular target: T1, IGF-I E9A (G1S-A70V background) displayed on phage (human; bacteriophage M13)
T1 construct: monovalent M13 phage display
T1 chain: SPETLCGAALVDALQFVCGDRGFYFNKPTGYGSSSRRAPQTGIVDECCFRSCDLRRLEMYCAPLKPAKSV
Procedure, shortened: (§1)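 Phage, normalized to a maximal ELISA signal of 0.2-0.4 per mutant, were premixed with threefold serial dilutions of soluble competitor in 0.5% Tween 20/PBS and incubated 1 h at room temperature on immobilized target.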

[2] = molecular target: T2, IGF-I R21A (G1S-A70V background) displayed on phage (human; bacteriophage M13, not fully specified; Displayed monovalently on M13 phage as a C-terminal fusion to the gene III fragment, which is left out of the letters.)
T2 construct: monovalent M13 phage display; not shown: Display carrier: M13 gene III fragment (residues 249-406) and its junction
T2 chain: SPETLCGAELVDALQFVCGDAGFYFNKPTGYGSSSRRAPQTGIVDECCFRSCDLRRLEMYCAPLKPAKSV
Procedure, shortened: as §1

[3] = molecular target: T3, IGF-I S51A (G1S-A70V background) displayed on phage (human; bacteriophage M13)
T3 construct: monovalent M13 phage display
T3 chain: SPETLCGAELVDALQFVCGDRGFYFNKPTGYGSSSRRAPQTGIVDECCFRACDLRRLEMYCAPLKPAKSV
Procedure, shortened: as §1

[4] = molecular target: T4, IGF-I L64A (G1S-A70V background) displayed on phage (human; bacteriophage M13)
T4 construct: monovalent M13 phage display; not shown: M13 gene III protein fragment (residues 249-406), the phage display carrier, and its junction to IGF-I
T4 chain: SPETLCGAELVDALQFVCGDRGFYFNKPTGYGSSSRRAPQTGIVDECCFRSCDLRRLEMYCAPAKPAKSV
Procedure, shortened: as §1

[5] = molecular target: T5, IGF-I S34A (G1S-A70V background) displayed on phage (human; bacteriophage M13)
T5 construct: monovalent M13 phage display; not shown: M13 gene III fragment (residues 249-406, display partner) and the junction to it
T5 chain: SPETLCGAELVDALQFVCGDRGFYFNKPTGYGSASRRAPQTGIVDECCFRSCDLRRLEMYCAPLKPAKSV
Procedure, shortened: as §1

[6] = molecular target: T6, IGF-I Y60A (G1S-A70V background) displayed on phage (human; bacteriophage M13)
T6 construct: monovalent M13 phage display; not shown: M13 gene III protein fragment (residues 249-406), the phage display carrier, and its junction to IGF-I
T6 chain: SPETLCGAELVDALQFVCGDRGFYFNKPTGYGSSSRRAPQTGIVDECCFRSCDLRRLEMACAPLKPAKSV
Procedure, shortened: as §1

[7] = molecular target: T7, IGF-I S35A (G1S-A70V background) displayed on phage (human; bacteriophage M13)
T7 construct: monovalent M13 phage display
T7 chain: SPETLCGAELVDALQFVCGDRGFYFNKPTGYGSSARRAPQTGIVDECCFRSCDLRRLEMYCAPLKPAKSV
Procedure, shortened: as §1

[8] = molecular target: T8, IGF-I G30A (G1S-A70V background) displayed on phage (human; bacteriophage M13)
T8 construct: monovalent M13 phage display; not shown: M13 gene III fragment (residues 249-406, display partner) and the junction to it
T8 chain: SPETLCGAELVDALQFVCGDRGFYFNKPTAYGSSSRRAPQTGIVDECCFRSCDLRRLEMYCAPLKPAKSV
Procedure, shortened: as §1

[9] = molecular target: T9, IGF-I P2A (G1S-A70V background) displayed on phage (human; bacteriophage M13)
T9 construct: range 249-406; monovalent M13 phage display
Procedure, shortened: as §1

[10] = molecular target: T10, IGF-I Q15A (G1S-A70V background) displayed on phage (human; bacteriophage M13)
T10 construct: monovalent M13 phage display
T10 chain: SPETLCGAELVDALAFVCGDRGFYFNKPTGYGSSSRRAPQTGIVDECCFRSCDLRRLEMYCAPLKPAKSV
Procedure, shortened: as §1

[11] = molecular target: T11, IGF-I Q40A (G1S-A70V background) displayed on phage (human; bacteriophage M13)
T11 construct: monovalent M13 phage display
T11 chain: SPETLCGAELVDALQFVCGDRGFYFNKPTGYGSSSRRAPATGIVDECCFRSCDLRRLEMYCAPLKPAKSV
Procedure, shortened: as §1

[12] = molecular target: T12, IGF-I Y24A (G1S-A70V background) displayed on phage (human; bacteriophage M13, not fully specified; Displayed monovalently on M13 phage as a C-terminal fusion to the gene III fragment, which is left out of the letters.)
T12 construct: monovalent M13 phage display; not shown: Display carrier: M13 gene III fragment (residues 249-406) and its junction
T12 chain: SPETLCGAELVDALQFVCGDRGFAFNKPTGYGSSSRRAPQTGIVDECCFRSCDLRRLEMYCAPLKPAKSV
Procedure, shortened: as §1

[13] = molecular target: T13, IGF-I P28A (G1S-A70V background) displayed on phage (human; bacteriophage M13)
T13 construct: monovalent M13 phage display; not shown: M13 gene III fragment (residues 249-406, display partner) and the junction to it
T13 chain: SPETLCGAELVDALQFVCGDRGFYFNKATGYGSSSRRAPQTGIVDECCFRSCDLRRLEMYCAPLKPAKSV
Procedure, shortened: as §1

[14] = molecular target: T14, IGF-I G42A (G1S-A70V background) displayed on phage (human; bacteriophage M13)
T14 construct: monovalent M13 phage display
T14 chain: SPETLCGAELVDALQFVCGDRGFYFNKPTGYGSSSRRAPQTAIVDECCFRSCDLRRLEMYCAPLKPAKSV
Procedure, shortened: as §1

[15] = molecular target: T15, IGF-I L54A (G1S-A70V background) displayed on phage (human; bacteriophage M13)
T15 construct: monovalent M13 phage display
T15 chain: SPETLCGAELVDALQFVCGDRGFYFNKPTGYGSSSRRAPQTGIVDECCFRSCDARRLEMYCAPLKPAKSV
Procedure, shortened: as §1

B1: human IGFBP-1 (other, UniProt P08833 26-259, looked up)
chain: APWQCAPCSAEKLALCPPVSASCSEVTRSAGCGCCPMCALPLGAACGVATARCARGLSCRALPGEQQPLHALTRGQGACVQESDASAPHAAEAGSPESPESTEITEEELLDNFHLMAPSEEDHSILWDAISTYDGSKALHVTNIKKWKEPCRIELYRVVESLAKAQETSGEEISKFYLPNCNKNGFYHSRQCETSMDGEAGLCWCVYPWNGKRIPGSPEIRGDPNCQIYFNVQN
notes: secreted recombinant protein purified from conditioned medium
B1 showed an IC50 [1] of 8.6 nM, an IC50 [2] of 7.1 nM and an IC50 [3] of 13.4 nM. The IC50 [4] was 12.1 nM, the IC50 [5] was 9.5 nM and the IC50 [6] was 6.6 nM. For the same binder, the IC50 [7] was 11.7 nM, the IC50 [8] was 7.1 nM and the IC50 [9] was 11 nM. For the same binder, the IC50 [10] was 13.9 nM, the IC50 [11] was 10.2 nM and the IC50 [12] was 13.3 nM. For the same binder, the IC50 [13] was 9.3 nM, the IC50 [14] was 15.7 nM and the IC50 [15] was 23.1 nM.
